Experimental data as given in the DeepSol protein solubility set.

Experiment: soluble on expression in E. coli; label from the status in PepcDB or PDB records

Soluble on expression in E. coli, not soluble:
MGSDKIHHHHHHMKNNNPPALGQKENAKHGEVFFPVQKYITRLAADYPVITTHWHDEAELTLITKGSCTYQIDLLEYEAKEGDIIFIPPLLLHSISIRDCDEFYSETYVFHINFLGGNNTDICSSRYLTPLINHEFAMPYLIAPKHPAYSSLCKCFMRITNLYSRQEFAYELALKAFLLQAIFLLLQYSEKNADFGVNTSSDKLKNVLDYIDVHYAESIQVAELAGLCYFSEYHFMRFFKKHMNMTCVQYINNVRLEKSVEQFERGNTSILDVSLSVGFHNLSYFHRAFKKRYHMTPLSFIKSLE
MGSDKIHHHHHHMKNSAPNKDGSIEANLTDLQVQTELYQWLSLVSHQRDKQAFTELFQFFAPKIKRFGMQRLGSNDKANELVQETMSNVWRKAHLYDGEKGAATTWVYTVMRNACFDMLRRIKTRNEQLLGDDIWPVEQALAENNPESETFSDHLMEQHMREHINKLPSSQQTVVKGVYFQSLSQEQLAQQLDVPLGTIKSRLRLALARLKLQMRDEYHD
MGSDKIHHHHHHMKNYALLNGAYDNKTMYDFKPVRADNTYLYDSQNRKYLDLRSGLWNTSLGYIDSLYQRVSKRFDQVLNKKLPYLDIHSFQHDIYDEVAQKVLELTGHAFKRVLYTNSGSENTELALKIADYTNKKGENNRILAFKDSYHGTFFGGVSVSGIDQEINSSFYPKYGEVTFIDYPKSAEQEKNVLDYIANVASFYDVMMIEPILASAGIYFASTDFFNALLKLLRKNQVLIVFDEVATGFFKTGKPFYFQQLSEKPDILCLSKAINNGITSFGCVCVNEEVDAKLQKNPKTMEHFSTQNGNLLGLESANIVLDYYLKSRDVIKGKVKDISDSISNVLDSQNVFYRNQGIMTAIRTESNQSLQLMKSLEKLGILTYLYVNEEEEGLSIMPPININLNVLEKALKLISKKIESQNSF
MGSDKIHHHHHHMKNYKIVAIGDNVCDKYLSRGKMYPGGQCINTCVYGKMNGAETAYIGKYGNDEVAECVQNTLKEIGIDDSHCRHYEGENGFALVTLKNADRVFLGSNKGGIAKEHSYNFDENDFEYIKKFDLIYTNLNSYIEDNLKELHATGVPIAYDFSMRWTDEYLLKVCPYIDVAILSCAHLTAEEREKEMKKVQNYGVKIVLGTIGEDGSYVLYNGDFLYTSAIMAANIIDTMGAGDSYFSTFLCSLLQTSETGKLVEGTKESMKIRLESAMKSGAIFAANVCGMEGAFGYGVPIQGKTEI
MGSDKIHHHHHHMKPWQGISEFAAVAEQQSFTAAARQLRLSVAQVSRNIAALEHRLQMQLLYRSTRSVSLTEEGKLYLPHCQHLVASLRDADQAIQQRTQQPQGLIRITAPVYYGERFIAPLLNDFLHIYPECRLDFQLTNEQVDLIEGSYDVAIRLGQLGNPRLRARKLGSRRHFVVGSPAYFEEFGRPQDINALDAHRCFTGTVRQWRFQVEGKLETVRPESYLHCNNGLALRDAAMKGLGLAMLPDYYVTDSLANGQLEEVLADYRQPDDGIWALYPENRQVIPKVRVLLDYLSGNLSGNLSGKFNTGEIEN
MGSDKIHHHHHHMKQLLAYCLSIILCVSFTGCMENYLDLYPEDKITSASFPENESDIKLLLNGVYAQLREKEVYNQGLFGFGITDGATPNAFNWGTDEVFNKLGAGRLSSSDGGVVTYRWKRCYEIISRANYLLACMDLVDLSEEAKAKYSGETHFLRGLAYSVLAETYGGVPIILTDISTEEARSLKRASLEETWQQALDDYEVAITNLGVDAPEPGRATKGAALGMKMRAYLYQGKYKEVLSCVEQIDALKKYGLFHSYEGLFDPANENNKEVLFDIQYIEGENSQGSYIDQYCGTGTGSWTRGSRYVPTDDLVAAYETIDGSPVDPENPYENRDPRLGFTAVLPGSYFLGYRFPNYLYPGGAFNHAGNRLKHLSTRKYRIQDESKLPPSGQSYINDIILRYADVLLSKAEAIIETNGNVADAIAILNRIRTERDDVKISLLPTSMSREEAREKVRHERRIELALEGRYWSDVKRWKIGKELYPMIIKDHEGSVIETKFPNGYLEYYDLLPIPDSERSLNPNLDQNPGW
MGSDKIHHHHHHMKRENLHQPFEISFSEFDESMLKEHDHTFFELVYILSGTGIQWINNNKFSYHGGHLFMITPGDSHSFEIHSTTKFIDIKFNDIYIHSAVFGTENIKRLEFILQHANHQPGCILRNRTDKLLVKPMIEAIIREYVNRNLYSKEIITQLINTIIIVVARNIAMFLPEQVNECSEEKSLGILQYIQTYIYQSEKIKTKAISQHFGISENYLGRYFKKHTNETMQQYILNYKLKLVENRLLHSEMRISEIVAELGFTDESHLNKLFKKYRGCSPTNFRKNNAV
MGSDKIHHHHHHMKRFNIIITLSATLGLFSCELDKMPMDQVSDAVFWQKPADFELAANDFYFGLQEVSQYIDMNSDIAFGSGTNDVSDGSYLAPVNSDDWDNPWKFVQSTSYLLKKAEESGLSDEEIGRWKAEAHFFRAYNYWKLVKTYGGVPKIDIPLNTSSEELYTPRSSQQEIIDFIIEDLDKAIPLLPKQSGLTAEELGRTTQGAALALKARAALFEGTWQKYHGMADAGKYLDLAIQAAQAIVDSKEYELYREKGELSYKYLHILEGDDSKEVLLARRYYKLRATHNWTRELLLGAMVPTKNLADVYLCTDGLPIDKSKLFKGFQTQTSEFENRDSRMAQTFVVPGSEIFSEGGGWATVEPGFIGNNSTRTGYMIRKFMDETLDAVQFIGEYDFKEFRYGEVLLILAEALYEKNGQITDEQLDLTINDLRNRANMPRLTNAFVATNGLNMQEEIRRERTVELAFEGYRRDDLRRWGTAETVLPLAIRGVKFVGTEYQQKFPELVIGQDIQVDSEGFIIAQPASARKFQTPKHWLSPIPLQQVQLSKGTLEQNPGW
MGSDKIHHHHHHMKRIVCPKDYYNEQGLLLSAKGTKITLSQFLRLQRKYDFLSETEANERTLASYEKIKQKICRKDERYKRADDQLLDQASALLVNIVFESKRKPWYMYLTALGNHINWLYTHSIDVALLSLMMAIESGVSQRSLWDLGVGGILHDVGKLLIPKKIIQKRTELSDIEKDILRQHCELGVECTTDCAFPILSQDIIAQHHERLDGSGYPNQLQEGQINEYVKIVMIADAFDTITAGRPYRKTVEVEEALAYLEDQEGAFSRMYLETLKNILVRP
MGSDKIHHHHHHMKRMKGIVYGGLLSVVFVMSGCSGSQKEGRDSKEIPVEIVKVAKTVPADTRNYVGTVEEVVSSSISFQVMGNVERVLVGEGQKVREGQLLAVLDKATLENAYNASAASLRQAEDAYARMRTLHENKSLPDMKWVEVESKLEQARSMERISRKNLEDRNLYAPFGGVIGKRMVEAGENVQPGQPVFSLLRIETVNVKIAVPENEVATLGDQAAMIKVAALGGQCFEGKVTEKGIVANPISHTYEAKIRLENPSGALLPGMVCDVRLSGEESVPAITLPNNAVLIANDGGRFVWKVVDGKAKATPVRTGDLTEQGLFILEGLNEGDIVVIGGYQKISEGMRVRAL
MGSDKIHHHHHHMKRNESKYKQVVNHVIDGINNGSYKKGDWILSINEFRKNYNLSRDTVFAGLSELKSKGIIDSTPGVGYYIATTRIAQKLNIFLLFNEFNEFKEDLYNSFISSIRKTANVDLYFHNYNRKVFETLINEANYKYTTYILMPGKFTNIAPLLESLSGRVFLLDHFHPELAGKYSSVAQNFEKDTYEALVYGLPHLKKYDHIIMVQKEEKEPIERYNGLCAFCEEYHFTHEYTDSVRNREIRQGETFMVVNDRDLVDLLKQAQLQNFAPGKDFGIISYNDTPLKEILAGGITTLSTDFKQMGQTMASLITQKEIKTIENPWKLDIRNSL
MGSDKIHHHHHHMKRVKEQIKYLALLAICLLSGCSDFLDSYNPSAVTDDFYNTKEGQQKLLTDINARYRNVFNTGELQYYGTDIYMAISEEPAERMFNGYDKTFNSTAPIVGDYWKVLYKIVQESNILLNRCTPDIAGSDYTSLTAQARFFRAMAYYYLVETFGPVPLLTEENTSVIQQAERTGEQAIYTFIITELNDIKDKLDMTTISAGKVTNAAVIHFLGKMYLTRAYKSFAETDDFSNAATTFDLLVENPASGYALQENYAALFDENNQANSEVIWAIQYGLDKNYRGDGNPQQAQFGFNIVALEPDLFIKNQNDYSSVSRKYWVNPKAHELYTDPEADTRYDATFKREYYINNPDNADYGKLGIYFPRWNDKSGMSNNAKRFYPFKQDDEYVWYPQSTALPVLETASDRMPMVRKFSDTKIQWGEGGSREDVIFRLGDTYLLCAEAYLGAGNKKLALERINSIRKRAAKDATAYEAMKLTDLDINVIMDERARELMGEHDRWFDLKRTQTLLTRVPAYNPFVVKYDNLNKNHLVRPIPQDERNKVDGLSQNEGY
MGSDKIHHHHHHMKSIEELYKRALELKNKGMSDKEISTELHLSVNTVTWLLSKEFLKEGAVQDVKIGWRSVGVFGSRIISIAEIMSDIIREEMNKNSFEVDSILGIAINGIPYATLVSYLMDKELIVYRPHPARKEGVFSSNFASVEGKRVVIIDDVASTGETMRRTITDVTKEGGKPVLCVLLASKMSVNDLNGVPVRSLIRTQVIGGS
MGSDKIHHHHHHMKSNTTMSKTERLFHLLQILRRYRYPLSGQFLANELGVSTRTIYRDIAALQAQGADIEGEPGLGYVLKPGFMLPPLMFNEEEIEALVLGSRWVAKKTDTHLQQAAHNALAKIASVLPADLRQQLELSSLLIGPGEVISGEDESLALVRKAIRKELKLFIQYHDLKGNVSTRTIWPIGLGYFDQVRVLIAWCELKKDFRHFRADRIVDVENLGVCYAKRRSVLLHDWRKQNNIPG
MGSDKIHHHHHHMKSVTVADLKADPIVQGYIEVGNRNLAAIGFTEHGLRHVGLVSNIAYNILEKLGYSERECELAAVAAYLHDIGNVINRSGHAQTGALLSAHILERHAMAPEEIAIVIGAIGNHDESDGNPVSNISAALILADKSDVHRSRVRNQDPATFDIHDRVNYAVEHSFLRVYPKDRVALEITINTEICPVMDYFEIFLARMLLCRRAASFLDTVFELKINEVKLL
MGSDKIHHHHHHMKTSVKFETIFPLTTAPLIQCITNEITCESMANALLYIDAKPIMADDPREFPQMFQQTSALVLNLGHLSQEREQSLLAASDYARQVNKLTVVDLVGYGASDIRNEVGEKLVHNQPTVVKGNLSEMRTFCQLVSHGRGVDGSPLDQSEEAIEELIQALRQQTQKFPQTVFLATGIQDVLVSQEQVIVLQNGVPELDCFTGTGDLVGALVAALLGEGNAPMTAAVAAVSYFNLCGEKAKTKSQGLADFRQNTLNQLSLLMKEKDWFEAVKGRVL
MGSDKIHHHHHHMKTTSVPVAYMPLIDAAPLIVGQEMGFAEAEGISLELIAAPSWSSVRDMLAFGRVDLAHLLSVVPVAMALRLGGVTNPMSAVSVLSVNGNVIGVSRALEARLRAAGYPFDFADAAAAGAALAKVTQGGLTIGVPFPFSMHVELLQVWRSSTPLASVPLDIRTVPPPMMAQALASGEIDAFCVGEPWGSVSVENGAGALLLPGRAIWSFAPEKVLATRADWAETEPHLLGRVMRTVWRAGKWLADPSSRTAAAELLSRPRWLDVPAELVDRALTGELAISPDGEVRDVPGFLEFHHGAANFPWRSQGKWIATQLATRTGMDPSAAARQAADVFRSDLYRAALDGTGADMPGASEKLEGSLIHPTAVASTRGQMILDTDVFFDGRIFDPTT
MGSDKIHHHHHHMKVFSERADKPHAYLFGEYTNPLGFDPVELALSEDGQAWQSIFDDPNLSNVYLVDFDWLPPVIADTYRTAGTRDGQQLANSRLDQRDIVLKFIAYCRGDADEKLTFQSLSNFLIRRHNYWVAFDNDGSRMYHVREKTITAEYYGDKMMMITVTLNNFTGVAQSIMPSAHINEMPNIGLGLPTDIVNYVFRTSEFDVNNIGELPVDPLVQGDYFDITLTGIGSPTIANTTTGDAITCTKSLTTGDTFKLIGVNPQINGQAAGINTDNGIIRLASGNNHFKITGCQDLNCTVNFYFKYLN
